US20260232827A1 (Zymeworks, published 2026)

T1: Construct 7 (human NaPi2b del 317-326) (human, UniProt O95436 1-690)
T1 construct: also called CL_#29921
T1 sequence: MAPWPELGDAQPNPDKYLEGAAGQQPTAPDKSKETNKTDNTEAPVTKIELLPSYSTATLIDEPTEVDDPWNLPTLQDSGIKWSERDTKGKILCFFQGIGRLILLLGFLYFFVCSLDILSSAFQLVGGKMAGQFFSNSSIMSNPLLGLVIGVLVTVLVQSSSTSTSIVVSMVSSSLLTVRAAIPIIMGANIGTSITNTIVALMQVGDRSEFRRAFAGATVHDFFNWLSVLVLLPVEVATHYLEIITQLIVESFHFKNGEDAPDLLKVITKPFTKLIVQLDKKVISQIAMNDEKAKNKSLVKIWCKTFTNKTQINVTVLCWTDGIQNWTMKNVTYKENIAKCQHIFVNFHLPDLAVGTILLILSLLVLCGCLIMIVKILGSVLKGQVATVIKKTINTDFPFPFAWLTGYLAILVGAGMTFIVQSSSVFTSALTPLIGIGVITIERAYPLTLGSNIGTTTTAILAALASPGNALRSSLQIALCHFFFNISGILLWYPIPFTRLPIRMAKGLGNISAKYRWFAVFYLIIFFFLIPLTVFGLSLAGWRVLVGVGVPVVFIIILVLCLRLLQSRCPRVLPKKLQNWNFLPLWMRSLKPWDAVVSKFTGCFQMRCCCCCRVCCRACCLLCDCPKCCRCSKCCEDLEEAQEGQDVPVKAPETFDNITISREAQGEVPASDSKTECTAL

T2: Construct 6 (human NaPi2b del 317-333) (human, UniProt O95436 1-690)
T2 construct: also called CL_#29919
T2 sequence: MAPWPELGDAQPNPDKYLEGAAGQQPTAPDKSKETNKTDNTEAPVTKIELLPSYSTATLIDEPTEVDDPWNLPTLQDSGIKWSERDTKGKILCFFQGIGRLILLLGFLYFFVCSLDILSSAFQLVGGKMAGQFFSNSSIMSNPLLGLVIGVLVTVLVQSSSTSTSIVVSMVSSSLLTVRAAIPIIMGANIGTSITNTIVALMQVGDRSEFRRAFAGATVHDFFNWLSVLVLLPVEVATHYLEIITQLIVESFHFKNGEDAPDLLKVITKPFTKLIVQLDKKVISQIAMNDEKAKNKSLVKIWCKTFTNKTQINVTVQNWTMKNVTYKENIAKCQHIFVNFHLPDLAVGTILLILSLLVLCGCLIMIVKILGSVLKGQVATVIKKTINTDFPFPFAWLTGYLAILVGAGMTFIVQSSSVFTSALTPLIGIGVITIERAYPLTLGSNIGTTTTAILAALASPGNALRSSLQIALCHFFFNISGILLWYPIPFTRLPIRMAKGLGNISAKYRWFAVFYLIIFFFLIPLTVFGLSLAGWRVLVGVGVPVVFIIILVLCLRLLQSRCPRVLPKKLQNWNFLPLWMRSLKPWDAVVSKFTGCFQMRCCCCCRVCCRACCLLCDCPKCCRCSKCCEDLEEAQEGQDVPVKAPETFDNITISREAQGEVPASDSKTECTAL

B1: palivizumab (v21995), anti-RSV antibody, negative control (antibody, human IgG1, kappa, V domains shown)
VH: QVTLRESGPALVKPTQTLTLTCTFSGFSLSTSGMSVGWIRQPPGKALEWLADIWWDDKKDYNPSLKSRLTISKDTSKNQVVLKVTNMDPADTATYYCARSMITNWYFDVWGAGTTVTVSS
VL: DIQMTQSPSTLSASVGDRVTITCKSQLSVGYMHWYQQKPGKAPKLLIYDTSKLASGVPSRFSGSGSGTEFTLTISSLQPDDFATYYCFQGSGYPFTFGGGTKLEIKR
B2: lifastuzumab (v18993), reference anti-NaPi2b antibody (antibody, human IgG1, kappa)
heavy 1: GEVQLVESGGGLVQPGGSLRLSCAASGFSFSDFAMSWVRQAPGKGLEWVATIGRVAFHTYYPDSMKGRFTISRDNSKNTLYLQMNSLRAEDTAVYYCARHRGFDVGHFDFWGQGTLVTVSSASTKGPSVFPLAPSSKSTSGGTAALGCLVKDYFPEPVTVSWNSGALTSGVHTFPAVLQSSGLYSLSSVVTVPSSSLGTQTYICNVNHKPSNTKVDKKVEPKSCDKTHTCPPCPAPELLGGPSVFLFPPKPKDTLMISRTPEVTCVVVDVSHEDPEVKFNWYVDGVEVHNAKTKPREEQYNSTYRVVSVLTVLHQDWLNGKEYKCKVSNKALPAPIEKTISKAKGQPREPQVYVYPPSRDELTKNQVSLTCLVKGFYPSDIAVEWESNGQPENNYKTTPPVLDSDGSFALVSKLTVDKSRWQQGNVFSCSVMHEALHNHYTQKSLSLSPG
heavy 2: not shown
light: GDIQMTQSPSSLSASVGDRVTITCRSSETLVHSSGNTYLEWYQQKPGKAPKLLIYRVSNRFSGVPSRFSGSGSGTDFTLTISSLQPEDFATYYCFQGSFNPLTFGQGTKVEIKRTVAAPSVFIFPPSDEQLKSGTASVVCLLNNFYPREAKVQWKVDNALQSGNSQESVTEQDSKDSTYSLSSTLTLSKADYEKHKVYACEVTHQGLSSPVTKSFNRGEC

What was measured:
[1] = biological target: T3, Construct 4 (chimeric human NaPi2b, swap in NaPi2c in 341-358) (human); experiment: flow cytometry, transfected HEK293-6e cells, antibody 200 nM;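 note: cells incubated with antibody for 24 h at 4 °C, background taken as average MFI of unstained cells without primary antibody, at least 1,000 events per well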
T3 construct: also called CL_#13435

[2] = biological target: T1, Construct 7 (human NaPi2b del 317-326); experiment: as above
[3] = biological target: T4, Construct 1 (chimeric human NaPi2b, swap in NaPi2c in 239-259) (human); experiment: as above
T4 construct: also called CL_#29914

[4] = biological target: T5, Construct 2 (chimeric human NaPi2b, swap in NaPi2c in 280-301) (human); experiment: as above
T5 construct: also called CL_#29915

[5] = biological target: T6, Construct 3 (chimeric human NaPi2b, swap in NaPi2c in 304-321) (human); experiment: as above
T6 construct: also called CL_#29916

[6] = biological target: T2, Construct 6 (human NaPi2b del 317-333); experiment: flow cytometry, transfected HEK293-6e cells, antibody 20 nM
[7] = biological target: T5, Construct 2 (chimeric human NaPi2b, …); experiment: as above

Binder	Background-Subtracted AF647 Mean Fluorescence Intensity [1] [MFI]	Background-Subtracted AF647 Mean Fluorescence Intensity [2] [MFI]	Background-Subtracted AF647 Mean Fluorescence Intensity [3] [MFI]	Background-Subtracted AF647 Mean Fluorescence Intensity [4] [MFI]	Background-Subtracted AF647 Mean Fluorescence Intensity [5] [MFI]	Background-Subtracted AF647 Mean Fluorescence Intensity [6] [MFI]	Background-Subtracted AF647 Mean Fluorescence Intensity [7] [MFI]
B1	12	-97	12	-30	-5	1	-64
B2	744	21	1510	1230	943	-3	1200
